This series in a line: protein stability index of a GFP-peptide fusion (GPS, HEK-293T) (PSI 1-6); higher = more stable.
Where [1] appears, read: treatment: DMSO, c terminus: a fixed tail appended.
Where [2] appears, read: treatment: MLN4924 1 uM, 8 h, c terminus: a fixed tail appended.

± gives the standard deviation.
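Further: 24-mer peptide tiles fused after GFP, lentivirally expressed, FACS-sorted into six equal bins by GFP/DsRed ratio, decoded by Illumina sequencing, PSI is the read-weighted mean bin number.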

With AAAATVLLRTARVRRECWFLPTAL [SLC19A2], the protein stability index under setting [1] worked out at 2.51 ± 0.54 and the protein stability index under setting [2] is 2.28 ± 0.42.

As to AAASGAAGGGGGGAGAGAPGGGRL [INTS3], the protein stability index stood at 4.98 ± 0.2 under setting [1] and 4.91 ± 0.26 under setting [2].

As for AAIVVNGHGMTPLKVAAESCKADV [FEM1B], the protein stability index by setting is: under setting [1], 3.38 ± 0.39; under setting [2], 3.3 ± 0.35. AAQEGHLELVKYLLAAGANVHATT [ANKRD17] had a protein stability index under setting [1] of 2.34 ± 0.3 and a protein stability index under setting [2] of 2.74 ± 0.35.

For the sequence ADESVLWQLFGPFGAVTNVKVIRD [ELAVL3], the protein stability index is, setting by setting: under setting [1], 2.23 ± 0.18; under setting [2], 2.35 ± 0.33.

ADGQESTPPTPAPTSGIVGALMEV [WASL]: the protein stability index is, setting by setting: under setting [1], 4.86 ± 0.1; under setting [2], 4.56 ± 0.17.

ADLLEEEVIISWSEKASKKYVSKE [EIF5] registered a protein stability index under setting [1] of 3.98 ± 0.31 and a protein stability index under setting [2] of 4.16 ± 0.41. On the same counts, the results for ADSLDFDETFLATSFLQHPWDESG [FOXJ1] are 4.22 ± 0.087 and 4.08 ± 0.13. In the same order, the values of ADSMLMQGSRGLTDQAIFYAVTPL [HDAC6] are 2.54 ± 0.39 and 2.46 ± 0.44.

Take AEDTEKKDEPSKYNQQQALIDQRY [CEP70]: the protein stability index under setting [1] came out at 5.2 ± 0.31 and the protein stability index under setting [2] stood at 5.36 ± 0.059. On the same counts, the results for AEEKEQLLHNDEYQETMVESTFMY [USP39] are 4.69 ± 0.27 and 4.8 ± 0.2.

As for AEGTTGLAPAGQTSEESRPRLSQL [TNXB], the protein stability index was determined as 5.66 ± 0.21 under setting [1] and 5.36 ± 0.25 under setting [2]. Consider AELQAELLHSQARLAELEAQVRKL [FBF1], for which the protein stability index by setting is: under setting [1], 4.29 ± 0.21; under setting [2], 4.26 ± 0.092.

As to AFRALASAQCPQFGIPRKRLKQS [SPOPL], the protein stability index by setting is: (treatment: DMSO, c terminus: native) 2.74 ± 0.19; (treatment: MLN4924 1 uM, 8 h, c terminus: native) 2.83 ± 0.16. For the sequence AGEDNDELIDNLKEAQYIRTELVE [PCMTD2], the protein stability index came to 5.13 ± 0.18 under setting [1] and 5.02 ± 0.17 under setting [2]. Consider AGGSSGTTARERPCVRPGVSGSPV [FBF1], for which the protein stability index stood at 4.58 ± 0.16 under setting [1] and 4.47 ± 0.32 under setting [2]. Sequence AGGSSSTPTPQALYPDLSCPEGLE [SPSB2] returned a protein stability index under setting [1] of 5.15 ± 0.31 and a protein stability index under setting [2] of 5.21 ± 0.25. Sequence AGNDPYCFVEFHEHRHAAAALAAM [TIA1] returned a protein stability index under setting [1] of 2.66 ± 0.17 and a protein stability index under setting [2] of 2.7 ± 0.25. Consider AGNSSRNSSQSSSDGSCKTAGEMV [BTBD10], for which the protein stability index reads like this: under setting [1], 5.16 ± 0.35; under setting [2], 5.14 ± 0.22. Turning to AGQKRKHSEGRVEVYYDGQWGTVC [LOXL2], the protein stability index under setting [1] worked out at 2.87 ± 1.3 and the protein stability index under setting [2] worked out at 3.35 ± 1. On to AGQRGEPGPKGDPGEKSHWGEGLH [EMID1], for which the protein stability index under setting [1] is 4.34 ± 0.36. With AKAQVRKAVQYEEKNPCRTLCCFC [STX11], the protein stability index by setting is: under setting [1], 2.97 ± 0.24; under setting [2], 3.36 ± 0.54. For AKKLPPVQESQSERLQAAGTDSAG [ELOA2], the protein stability index reads like this: under setting [1], 5.2 ± 0.18; under setting [2], 5.09 ± 0.24. Consider AKLAINQGMEVDLVTGLAIEEACY [AUH], for which the protein stability index under setting [1] was found to be 2.07 ± 0.21 and the protein stability index under setting [2] is 2.32 ± 0.44. AKNYIWALSEILRIGKRPDLLTFV [NEUROD6]: the protein stability index runs as follows: under setting [1], 2.53 ± 0.52; under setting [2], 2.69 ± 0.92. Take AKQKLDFFIRTSDSFDKFDFCEPS [PCMTD2]: the protein stability index came out at 2.87 ± 0.26 under setting [1] and 3.02 ± 0.47 under setting [2]. In the case of AKVPRPPSTLLPTPEEQGELEPLK [FOXJ1], the protein stability index by setting is: under setting [1], 5.19 ± 0.23; under setting [2], 5.3 ± 0.18.

As for AKYPHDVVNHLSCDEARNHYGGVV [SPACA9], the protein stability index is, setting by setting: under setting [1], 3.5 ± 0.27; under setting [2], 3.58 ± 0.082. In the same order, the values of ALAREFSCPFFETSAAYRYYIDDV [RIT1] are 2.29 ± 0.13 and 2.08 ± 0.12. As to ALGILIFEMLSGFPPFFDDNPFGI [PRKX], the protein stability index was 3.11 ± 1.7 under setting [1] and 3.31 ± 0.25 under setting [2]. As to ALGTSWTLPLQDRELGPEELDELQ [CABP4], the protein stability index reads like this: under setting [1], 5.4 ± 0.097; under setting [2], 5.23 ± 0.16.

Take ALKEELLFMKKNHEEEVKGLQAQI [KRT18]: the protein stability index reads like this: under setting [1], 3.79 ± 0.36; under setting [2], 3.95 ± 0.28.

With ALMHTLQRHRDILQVIYWARDVFI [GOSR1], the protein stability index by setting is: under setting [1], 2.84 ± 0.5; under setting [2], 2.26 ± 0.47. With ALPEAPAPLLPHITATSLLGTRES [BCL2L13], the protein stability index stood at 4.67 ± 0.23 under setting [1] and 4.56 ± 0.16 under setting [2]. In the same order, the values of ALRLEVRAGPDSAGIALYSHEDVC [CARM1] are 2.61 ± 0.64 and 2.55 ± 0.56. ALSPAGVCGGAQRPGHLPGLLLGS [CDC25B] gave a protein stability index under setting [1] of 2.51 ± 0.22 and a protein stability index under setting [2] of 2.93 ± 0.46. On the same counts, the results for ANWQPKVAPATWSAGVPPSAPLQG [SNAP91] are 4 ± 0.098 and 3.85 ± 0.25. In the same order, the values of APAMYDDESAIDFSAYIDSMAAVP [CEBPD] are 4.32 ± 0.27 and 3.62 ± 0.15. For the sequence APAPSQVKSKAKKTVDKHSDEYKI [CEBPB], the protein stability index runs as follows: under setting [1], 5.36 ± 0.17; under setting [2], 5.37 ± 0.25. In the same order, the values of APIRVRNLTIRAGALTGKENNMLQ [DMRTC1] are 3.46 ± 0.23 and 3.26 ± 0.19. On the same counts, the results for APLQADLTEQVWKVQDALQNQSDS [SCARA5] are 5.26 ± 0.24 and 5.24 ± 0.28. As for APPPADSAPQQNGQPLRPLVPDAS [PDLIM7], the protein stability index runs as follows: under setting [1], 5.27 ± 0.12; under setting [2], 5.37 ± 0.13.

For the sequence AQEPSAVPRAGPLTVNTEAQQLLR [FOXJ1], the protein stability index by setting is: under setting [1], 4.62 ± 0.39; under setting [2], 4.9 ± 0.17.

In turn, AQKQRLERALDATEVPFSITTDNL [TEKT4] gave a protein stability index under setting [1] of 4.72 ± 0.29 and a protein stability index under setting [2] of 4.77 ± 0.22. Regarding AQLSELRCEMEAQNQEYKMLLDIK [KRT15], the protein stability index reads like this: under setting [1], 3.65 ± 0.33; under setting [2], 3.65 ± 0.38. Consider AQQIRLHHFNSSHLEIDDMYTPAY [MYORG], for which the protein stability index is 2.86 ± 0.26 under setting [1] and 2.91 ± 0.21 under setting [2].

Consider AQSPGAVEEILDRENKRMADSLAS [BET1L], for which the protein stability index reads like this: under setting [1], 5.12 ± 0.14; under setting [2], 5.35 ± 0.26. On the same counts, the results for AQTELLCCLVKMESLEPDAQVLML [FANCE] are 2.61 ± 0.68 and 2.34 ± 0.16.

As for AREELMESRMRIESLSSQLSNLQK [LMNB1], the protein stability index came out at 3.95 ± 0.18 under setting [1] and 4.07 ± 0.19 under setting [2]. For ARIYEETLNILLYEAQDGRGPDNA [KCTD10], the protein stability index is, setting by setting: under setting [1], 3.23 ± 0.28; under setting [2], 3.04 ± 0.6. In the same order, the values of ARLLGALAARSGAAYGPGARGEDR [TSPAN10] are 3.89 ± 0.73 and 3.91 ± 0.18. As for ASSGLTVEVDAPKSQDLAKIMADI [KRT18], the protein stability index under setting [1] was determined as 4.45 ± 0.3 and the protein stability index under setting [2] was 4.57 ± 0.057.

With ATLICMAMQASKATKITLSAIYKW [FOXJ1], the protein stability index by setting is: under setting [1], 3.15 ± 0.48; under setting [2], 2.92 ± 0.71. Sequence ATQQARKRNFISSKSKQPAGHRRP [C22orf31] yielded a protein stability index under setting [1] of 4.58 ± 0.27 and a protein stability index under setting [2] of 4.71 ± 0.31.

On to ATSVTVPGAGVPSGSGGTVAPATM [ZBTB22], for which the protein stability index by setting is: under setting [1], 4.7 ± 0.38; under setting [2], 4.64 ± 0.43. As to ATYRRLLEGEDAHLSSQQASGQSY [KRT16], the protein stability index worked out at 4.46 ± 0.22 under setting [1] and 4.4 ± 0.29 under setting [2]. In the same order, the values of AVAQTAHLPADSEVTLEANPTSAP [RSAD1] are 5.4 ± 0.14 and 5.35 ± 0.23. On the same counts, the results for AVNQEAMNNAQRIEKWVILEKDFS [ACSBG2] are 3.16 ± 0.31 and 3.47 ± 0.46. As for AWNPEDRSLNVFVKDDDRLTFHRH [SPSB4], the protein stability index was 3.65 ± 0.27 under setting [1] and 3.76 ± 0.19 under setting [2]. On to AYVSPEILNTTGTYSGKAADVWSL [TRIB1], for which the protein stability index is, setting by setting: under setting [1], 2.51 ± 0.3; under setting [2], 2.37 ± 0.52. On the same counts, the results for AYYRGAVGALLVYDIAKHLTYENV [RAB11A] are 3.11 ± 0.5 and 2.89 ± 0.59. Take CALNALTTTVCLVAAALRYLQIFA [FAM189A2]: the protein stability index runs as follows: under setting [1], 2.75 ± 0.37; under setting [2], 3.1 ± 0.23. CANFGDQGITMGCWDMYRHDIDCQ [LOXL2]: the protein stability index is, setting by setting: under setting [1], 2.42 ± 0.29; under setting [2], 2.6 ± 0.57.

In turn, CCIDWTHVTDPLIGCKKPVSASGK [SMG5] registered a protein stability index under setting [1] of 3.05 ± 0.21 and a protein stability index under setting [2] of 3.09 ± 0.18. On to CCIVTSTYGWTANMERIMKAQALR [HSP90AB1], for which the protein stability index under setting [2] was 2.42 ± 0.4. The sequence CEEWSFFHAYYYCFITLTTIGFGD [KCNK9] registered a protein stability index under setting [1] of 3.33 ± 0.098 and a protein stability index under setting [2] of 2.96 ± 0.37. Regarding CEFSSERGPRMCRFIRERDRAVND [CDC25B], the protein stability index came to 3.51 ± 0.22 under setting [1] and 3.52 ± 0.17 under setting [2]. As for CEKRCSYCNFNKYIPRRLEEAAMQ [RSAD1], the protein stability index under setting [1] came to 2.4 ± 0.028 and the protein stability index under setting [2] amounted to 2.6 ± 0.31. On the same counts, the results for CFALIPKAPKKDVIKMLVNDNKVL [EFHC1] are 2.28 ± 0.44 and 2.43 ± 0.53. As to CFRSLAASSPSIRQKKLMHKLQEE [CCDC70], the protein stability index came out at 3.22 ± 0.15 under setting [1] and 3.33 ± 0.046 under setting [2]. Regarding CHCLKGFTLNPDKKTCRRINYCAL [MATN2], the protein stability index runs as follows: under setting [1], 2.5 ± 0.24; under setting [2], 2.14 ± 0.18.

CHELLGHVPLLAEPSFAQFSQEIG [TPH1]: the protein stability index by setting is: under setting [1], 3.1 ± 0.27; under setting [2], 3.02 ± 0.26. As for CHPDDQFTTSILRHWCMKHDELLA [INTS3], the protein stability index came to 3.03 ± 0.28 under setting [1] and 3.06 ± 0.41 under setting [2].
